No end group written: not given here.
Test: Solubility of protein polymers
Assay type: physicochemical
Excerpt: In order to both increase solubility of the protein backbone in organic solvents and to include a better enzymatic transglutaminase substrate for conjugation to chelators, a phenylalanine amino acid (F) will be added to the random coil backbone, resulting in GFKAGTGSA (SEQ ID NO: 4). It is contemplated that this protein structure will not form a particular secondary structure, behaving as a random coil in an aqueous solution. As indicated by the monomer sequence, the lysines are spaced every nine amino acids, which is still an optimal interval for a high concentration of Gd chelators, but still allowing enough room to prevent steric hindrance. […] It is contemplated that proteins including various amounts of leucines, a hydrophobic residue that is high on the hydropathy scale, provides novel protein polymers useful in the present invention that are both water and organo-soluble.
However, a protein soluble in organic solvents would allow coupling in N-methyl-pyrrolidone (NMP) using a peptide coupling agent such as Bromo-tris-pyrrolidinophosphoniumhexafluorophosphate (PyBroP) or 2-(IH-7-Azabenzotriazol-1-yl)-1,1,3,3-tetramethyluroniumhexafluorophosphate Methanaminium (HATU) in diisopropylethylamine (DIEA). Two equivalents of the chelator and at least 2:1 equivalents of the peptide-coupling agent will be used for each lysine site. […]

## GFKAGTGSA: protein polymer with monomer GFKAGTGSA (SEQ ID NO: 4), phenylalanine added to the random coil backbone (also: repeated monomer polymer)
  solubility in water: only soluble in water at high pH
Organic solvents
  solubility in organics: not soluble in organics

— patent publication US8021646B2, “Compositions and methods for magnetic resonance imaging contrast agents” (Northwestern University, priority 2006, dated 2011)
